Data: patent US20160082083A1 (NATIONAL RESEARCH COUNCIL OF CANADA, published 2016)

B1: IGFBP-2 C-terminal fragment (aas 207-328 of SEQ ID NO: 3) (other)
chain: IASKGGKHHLGLEEPKKLRPPPARTPCQQELDQVLERISTMRLPDERGPLEHLYSLHIPNCDKHGLYNLKQCKMSLNGQRGECWCVNPNTGKLIQGAPTIRGDPECHLFYNEQQEARGVHTQRMQDPWSHPQFEKTGHHHHHHHHGGQ
B2: IGFBP-2 full-length protein (aas 1-328), produced at BRI-NRC (other)
chain: MLPRVGCPALPLPPPPLLPLLPLLLLLLGASGGGGGARAEVLFRCPPCTPERLAACGPPPVAPPAAVAAVAGGARMPCAELVREPGCGCCSVCARLEGEACGVYTPRCGQGLRCYPHPGSELPLQALVMGEGTCEKRRDAEYGASPEQVADNGDDHSEGGLVENHVDSTMNMLGGGGSAGRKPLKSGMKELAVFREKVTEQHRQMGKGGKHHLGLEEPKKLRPPPARTPCQQELDQVLERISTMRLPDERGPLEHLYSLHIPNCDKHGLYNLKQCKMSLNGQRGECWCVNPNTGKLIQGAPTIRGDPECHLFYNEQQEARGVHTQRMQGSGWSHPQFEKTGHHHHHHHHGGQ
B3: IGFBP-2 (from R&D systems) (other)
chain: MLPRVGCPALPLPPPPLLPLLPLLLLLLGASGGGGGARAEVLFRCPPCTPERLAACGPPPVAPPAAVAAVAGGARMPCAELVREPGCGCCSVCARLEGEACGVYTPRCGQGLRCYPHPGSELPLQALVMGEGTCEKRRDAEYGASPEQVADNGDDHSEGGLVENHVDSTMNMLGGGGSAGRKPLKSGMKELAVFREKVTEQHRQMGKGGKHHLGLEEPKKLRPPPARTPCQQELDQVLERISTMRLPDERGPLEHLYSLHIPNCDKHGLYNLKQCKMSLNGQRGECWCVNPNTGKLIQGAPTIRGDPECHLFYNEQQEARGVHTQRMQ
B4: IGFBP-5 C-terminal fragment (aas 177-272) (other)
chain: IASIISAPEMRQESEQGPCRRHMEASLQELKASPRMVPRAVYLPNCDRKGFYKRKQCKPSRGRKRGICWCVDKYGMKLPGMEYVDGDFQCHTFDSSNVEDPWSHPQFEKTGHHHHHHHHGGQ
B5: IGFBP-6 (from R&D systems) (other)
chain: RCPGCGQGVQAGCPGGCVEEEDGGSPAEGCAEAEGCLRREGQECGVYTPNCAPGLQCHPPKDDEAPLRALLLGRGRCLPARAPAVAEENPKESKPQAGTARPQDVNRRDQQRNPGTSTTPSQPNSAGVQDTEMGPCRRHLDSVLQQLQTEVYRGAQTLYVPNCDHRGFYRKRQCRSSQGQRRGPCWCVDRMGKSLPGSPDGNGSSSCPTGSSG
B6: CIBP6 (aas 151-240) (other)
chain: IARNSAGVQDTEMGPCRRHLDSVLQQLQTEVYRGAQTLYVPNCDHRGFYRKRQCRSSQGQRRGPCWCVDRMGKSLPGSPDGNGSSSCPTGSSGSSTGHHHHHHHHG

Each binder was assayed against cathepsin B (human, UniProt P07858 80-333) (assay: cell-based or functional assay).

| Binder | inhibition of intracellular cathepsin B activity (Magic Red) in U87MG cells, overnight incubation with 20 nM protein [%] | inhibition of secreted cathepsin B activity in U87MG CM, overnight incubation with 20 nM protein [%] |
| --- | --- | --- |
| B1 | ~50 | ~70 |
| B2 | ~50 | ~60 |
| B3 | ~50 | – |
| B4 | ~50 | – |
| B5 | – | ~60 |
| B6 | – | ~60 |
